Experimental data published in US20140072613A1, “Compositions and Methods for Treating Cutaneous Scarring” (priority 2012, published 2014).

Columns and labels:
Test in all cases: biochemical
Type in all cases: biochemical
266 human kinases [1] = biological target: 266 human kinases (Homo sapiens, UniProt Q9P286); conditions: PAK5(h); 100 μM
Outline: (§1)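 A filter-capture radiometric assay: phosphorylated cationic substrate binds an anionic membrane and is scintillation-counted, with values referenced to full-activity control.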

266 human kinases [2] = biological target: 266 human kinases (Homo sapiens, UniProt O96013); conditions: PAK4(h); 100 μM
266 human kinases (Homo sapiens, UniProt O96013), sequence (O96013 whole entry): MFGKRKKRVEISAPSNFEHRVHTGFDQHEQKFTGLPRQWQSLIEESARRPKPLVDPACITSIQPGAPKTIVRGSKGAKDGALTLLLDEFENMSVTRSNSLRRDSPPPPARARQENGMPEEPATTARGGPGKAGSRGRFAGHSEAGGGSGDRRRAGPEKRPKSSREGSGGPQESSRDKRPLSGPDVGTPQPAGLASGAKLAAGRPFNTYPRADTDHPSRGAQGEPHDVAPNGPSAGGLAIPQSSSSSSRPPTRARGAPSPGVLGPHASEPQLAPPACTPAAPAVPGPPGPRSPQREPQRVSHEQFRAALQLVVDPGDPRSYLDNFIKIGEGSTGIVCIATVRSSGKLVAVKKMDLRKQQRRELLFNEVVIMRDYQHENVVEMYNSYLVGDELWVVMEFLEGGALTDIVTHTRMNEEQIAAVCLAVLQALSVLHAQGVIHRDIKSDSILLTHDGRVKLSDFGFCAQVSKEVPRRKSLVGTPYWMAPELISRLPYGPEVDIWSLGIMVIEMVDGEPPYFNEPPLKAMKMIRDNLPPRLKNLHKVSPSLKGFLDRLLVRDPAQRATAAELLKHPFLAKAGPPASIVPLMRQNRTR
Outline: as §1

266 human kinases [3] = biological target: 266 human kinases (Homo sapiens, UniProt P05129); conditions: PKCγ(h); 100 μM
Outline: as §1

266 human kinases [4] = biological target: T1, 266 human kinases (Homo sapiens, UniProt Q02156); conditions: PKCε(h); 100 μM
T1 sequence (Q02156 1-737): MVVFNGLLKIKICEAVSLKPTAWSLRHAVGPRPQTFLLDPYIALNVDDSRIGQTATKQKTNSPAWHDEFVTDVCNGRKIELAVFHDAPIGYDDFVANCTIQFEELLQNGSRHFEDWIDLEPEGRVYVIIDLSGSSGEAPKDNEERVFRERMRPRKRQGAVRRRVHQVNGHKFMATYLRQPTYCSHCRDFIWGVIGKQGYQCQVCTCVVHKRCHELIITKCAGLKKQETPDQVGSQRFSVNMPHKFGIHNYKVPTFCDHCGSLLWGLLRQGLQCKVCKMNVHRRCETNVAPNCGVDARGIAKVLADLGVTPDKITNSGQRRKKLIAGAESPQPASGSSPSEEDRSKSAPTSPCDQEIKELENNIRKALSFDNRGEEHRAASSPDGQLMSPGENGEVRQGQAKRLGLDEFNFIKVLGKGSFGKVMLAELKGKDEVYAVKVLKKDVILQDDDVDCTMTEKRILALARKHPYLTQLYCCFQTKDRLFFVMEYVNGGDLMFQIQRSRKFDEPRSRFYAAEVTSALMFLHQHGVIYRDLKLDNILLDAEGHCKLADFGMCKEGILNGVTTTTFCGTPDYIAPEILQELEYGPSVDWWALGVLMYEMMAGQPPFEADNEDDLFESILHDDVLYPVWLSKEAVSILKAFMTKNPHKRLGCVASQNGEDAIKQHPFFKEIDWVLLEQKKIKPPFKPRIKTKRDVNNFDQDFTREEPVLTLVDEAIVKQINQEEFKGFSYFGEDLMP
Outline: as §1

266 human kinases [5] = biological target: 266 human kinases (Homo sapiens, UniProt P22455); conditions: FGFR4(h); 100 μM
Outline: as §1

266 human kinases [6] = biological target: 266 human kinases (Homo sapiens, UniProt P42345); conditions: 100 μM
Outline: as §1

266 human kinases [7] = biological target: 266 human kinases (Homo sapiens, UniProt P49841); conditions: 6SK3β(h); 100 μM
266 human kinases (Homo sapiens, UniProt P49841), sequence (P49841 whole entry): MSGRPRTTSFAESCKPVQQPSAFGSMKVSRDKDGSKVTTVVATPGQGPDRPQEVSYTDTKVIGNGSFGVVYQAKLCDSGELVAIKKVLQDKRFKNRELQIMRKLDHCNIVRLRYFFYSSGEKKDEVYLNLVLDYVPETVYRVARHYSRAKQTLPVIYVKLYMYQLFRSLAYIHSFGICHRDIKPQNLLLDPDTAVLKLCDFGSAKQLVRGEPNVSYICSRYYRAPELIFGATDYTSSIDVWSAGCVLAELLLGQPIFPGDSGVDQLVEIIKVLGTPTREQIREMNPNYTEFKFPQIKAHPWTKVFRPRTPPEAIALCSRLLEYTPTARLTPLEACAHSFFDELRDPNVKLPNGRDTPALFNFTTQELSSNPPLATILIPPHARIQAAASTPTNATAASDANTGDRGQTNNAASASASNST
Outline: as §1

266 human kinases [8] = biological target: T2, 266 human kinases (Homo sapiens, UniProt Q9NWZ3); conditions: IRAK4(h); 100 μM
T2 sequence (Q9NWZ3 1-460): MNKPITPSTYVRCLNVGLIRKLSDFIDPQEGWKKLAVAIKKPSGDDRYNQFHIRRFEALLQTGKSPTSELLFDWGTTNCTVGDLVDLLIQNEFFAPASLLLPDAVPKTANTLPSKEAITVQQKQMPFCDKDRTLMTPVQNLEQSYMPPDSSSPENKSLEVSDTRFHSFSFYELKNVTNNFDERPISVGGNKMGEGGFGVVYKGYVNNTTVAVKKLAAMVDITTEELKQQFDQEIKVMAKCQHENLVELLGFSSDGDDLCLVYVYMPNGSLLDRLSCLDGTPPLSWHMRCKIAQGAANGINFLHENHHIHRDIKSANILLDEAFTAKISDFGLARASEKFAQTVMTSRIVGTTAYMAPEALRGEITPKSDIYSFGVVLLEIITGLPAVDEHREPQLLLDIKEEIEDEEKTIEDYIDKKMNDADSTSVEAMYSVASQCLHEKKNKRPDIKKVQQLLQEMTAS
Outline: as §1

266 human kinases [9] = biological target: T3, 266 human kinases (Homo sapiens, UniProt P51813); conditions: Bmx(h); 100 μM
T3 sequence (P51813 1-675): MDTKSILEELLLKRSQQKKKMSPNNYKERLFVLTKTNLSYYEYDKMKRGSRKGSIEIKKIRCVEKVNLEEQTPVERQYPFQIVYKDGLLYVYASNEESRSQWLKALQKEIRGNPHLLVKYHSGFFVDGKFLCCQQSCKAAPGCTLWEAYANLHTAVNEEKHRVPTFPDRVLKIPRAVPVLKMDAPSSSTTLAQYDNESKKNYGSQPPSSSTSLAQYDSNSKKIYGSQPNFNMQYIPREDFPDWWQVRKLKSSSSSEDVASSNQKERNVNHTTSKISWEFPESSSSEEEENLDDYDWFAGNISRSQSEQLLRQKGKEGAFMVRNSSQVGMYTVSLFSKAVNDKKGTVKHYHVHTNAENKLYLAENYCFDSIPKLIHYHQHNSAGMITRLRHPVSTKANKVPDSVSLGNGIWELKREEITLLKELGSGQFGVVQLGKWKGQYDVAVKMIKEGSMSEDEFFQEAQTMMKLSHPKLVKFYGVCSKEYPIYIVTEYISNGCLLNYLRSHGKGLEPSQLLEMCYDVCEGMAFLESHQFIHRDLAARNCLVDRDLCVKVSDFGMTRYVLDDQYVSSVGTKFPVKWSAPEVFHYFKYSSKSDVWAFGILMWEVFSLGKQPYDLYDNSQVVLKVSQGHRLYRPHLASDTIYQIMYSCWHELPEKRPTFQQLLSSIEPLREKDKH
Outline: as §1

266 human kinases [10] = biological target: 266 human kinases (Homo sapiens, UniProt Q05655); conditions: PKGδ(h); 100 μM
266 human kinases (Homo sapiens, UniProt Q05655), sequence (Q05655 whole entry): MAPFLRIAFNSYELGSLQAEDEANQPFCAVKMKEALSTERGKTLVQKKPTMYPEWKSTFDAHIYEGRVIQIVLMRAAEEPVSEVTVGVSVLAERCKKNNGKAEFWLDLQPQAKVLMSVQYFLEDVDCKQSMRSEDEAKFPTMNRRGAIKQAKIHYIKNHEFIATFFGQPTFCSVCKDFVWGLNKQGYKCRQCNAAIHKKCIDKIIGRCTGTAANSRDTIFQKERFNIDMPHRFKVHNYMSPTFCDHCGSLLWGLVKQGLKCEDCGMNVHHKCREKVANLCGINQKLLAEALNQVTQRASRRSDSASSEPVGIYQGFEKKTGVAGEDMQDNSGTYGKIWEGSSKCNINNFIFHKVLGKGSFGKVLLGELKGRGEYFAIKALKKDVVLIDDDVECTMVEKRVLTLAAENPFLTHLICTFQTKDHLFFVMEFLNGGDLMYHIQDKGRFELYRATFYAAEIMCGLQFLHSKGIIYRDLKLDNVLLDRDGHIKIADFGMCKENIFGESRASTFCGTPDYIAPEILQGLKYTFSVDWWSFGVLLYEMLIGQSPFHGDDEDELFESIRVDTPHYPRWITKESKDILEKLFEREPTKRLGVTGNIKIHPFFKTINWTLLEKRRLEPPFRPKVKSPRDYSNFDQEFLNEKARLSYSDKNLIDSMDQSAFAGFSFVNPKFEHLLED
Outline: as §1

266 human kinases [11] = biological target: 266 human kinases (Homo sapiens, UniProt P22607); conditions: FGFR3(h); 100 μM
266 human kinases (Homo sapiens, UniProt P22607), sequence (P22607 23-806): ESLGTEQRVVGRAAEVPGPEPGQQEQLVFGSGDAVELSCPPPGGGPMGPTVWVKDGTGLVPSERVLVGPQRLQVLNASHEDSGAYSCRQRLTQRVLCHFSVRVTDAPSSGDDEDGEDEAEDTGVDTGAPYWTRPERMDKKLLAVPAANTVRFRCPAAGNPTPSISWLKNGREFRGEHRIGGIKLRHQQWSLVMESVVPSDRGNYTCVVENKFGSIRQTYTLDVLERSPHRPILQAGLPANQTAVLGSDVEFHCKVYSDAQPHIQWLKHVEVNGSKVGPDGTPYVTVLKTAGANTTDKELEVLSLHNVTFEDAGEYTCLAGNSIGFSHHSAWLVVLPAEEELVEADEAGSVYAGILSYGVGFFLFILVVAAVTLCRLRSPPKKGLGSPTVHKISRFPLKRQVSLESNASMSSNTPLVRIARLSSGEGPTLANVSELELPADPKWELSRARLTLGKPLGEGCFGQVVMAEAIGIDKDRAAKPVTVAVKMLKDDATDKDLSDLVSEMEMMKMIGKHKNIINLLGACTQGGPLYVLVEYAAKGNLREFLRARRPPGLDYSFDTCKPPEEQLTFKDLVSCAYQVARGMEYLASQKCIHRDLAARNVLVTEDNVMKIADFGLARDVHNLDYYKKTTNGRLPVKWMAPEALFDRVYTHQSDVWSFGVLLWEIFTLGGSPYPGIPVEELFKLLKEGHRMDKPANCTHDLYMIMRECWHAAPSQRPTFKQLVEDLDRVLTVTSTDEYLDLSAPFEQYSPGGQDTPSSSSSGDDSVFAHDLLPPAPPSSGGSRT
Outline: as §1

266 human kinases (Homo sapiens, UniProt Q9P286), sequence (Q9P286 whole entry): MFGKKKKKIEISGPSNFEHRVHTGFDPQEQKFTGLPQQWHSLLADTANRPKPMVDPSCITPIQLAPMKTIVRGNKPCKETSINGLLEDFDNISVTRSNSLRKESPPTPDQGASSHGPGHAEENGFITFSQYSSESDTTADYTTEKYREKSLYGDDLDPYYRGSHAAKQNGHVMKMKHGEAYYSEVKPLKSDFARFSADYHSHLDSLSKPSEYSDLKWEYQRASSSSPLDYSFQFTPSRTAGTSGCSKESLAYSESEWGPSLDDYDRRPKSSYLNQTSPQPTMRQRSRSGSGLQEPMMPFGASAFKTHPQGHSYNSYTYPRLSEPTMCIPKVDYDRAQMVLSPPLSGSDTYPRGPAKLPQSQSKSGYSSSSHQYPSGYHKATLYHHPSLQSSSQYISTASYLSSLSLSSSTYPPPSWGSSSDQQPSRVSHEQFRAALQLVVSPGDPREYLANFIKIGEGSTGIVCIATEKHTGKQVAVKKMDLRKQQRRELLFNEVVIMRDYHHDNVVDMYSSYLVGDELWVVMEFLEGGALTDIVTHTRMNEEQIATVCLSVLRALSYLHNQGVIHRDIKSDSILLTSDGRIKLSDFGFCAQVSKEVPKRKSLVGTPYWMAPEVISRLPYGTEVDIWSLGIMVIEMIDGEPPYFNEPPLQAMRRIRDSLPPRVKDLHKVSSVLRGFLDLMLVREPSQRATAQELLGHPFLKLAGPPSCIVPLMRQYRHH

Sequence	% activity (266 human kinases [1]) [%]	% activity (266 human kinases [2]) [%]	% activity (266 human kinases [3]) [%]	% activity (266 human kinases [4]) [%]	% activity (266 human kinases [5]) [%]	% activity (266 human kinases [6]; mTOR(h)) [%]	% activity (266 human kinases [6]; mTOR/FKBP12(h)) [%]	% activity (266 human kinases [7]) [%]	% activity (266 human kinases [8]) [%]	% activity (266 human kinases [9]) [%]	% activity (266 human kinases [10]) [%]	% activity (266 human kinases [11]) [%]
HRRIKAWLKKIKALARQLGVAA (mammal) [MMI-0500]	125	86	6	23	3	135	140	238	3	45	61	10
YARAAARQARAKALNRQLGVA (mammal) [MMI-0200]	100	98	101	98	75	110	118	132	110	76	101	208
